# Measurements from paper PMC12104086 (2025).
# T1: recombinant mouse cold-inducible RNA-binding protein (mouse, UniProt P60824 1-172)
# T1 chain: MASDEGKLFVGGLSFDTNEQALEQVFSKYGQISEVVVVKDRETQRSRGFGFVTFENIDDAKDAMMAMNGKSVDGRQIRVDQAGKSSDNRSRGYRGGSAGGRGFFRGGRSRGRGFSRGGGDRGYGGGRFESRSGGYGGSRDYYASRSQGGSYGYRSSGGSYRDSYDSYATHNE
# T2: recombinant human alphavbeta3 integrin (human, UniProt P06756 31-1048; P05106 27-718)
# T2 chain 1: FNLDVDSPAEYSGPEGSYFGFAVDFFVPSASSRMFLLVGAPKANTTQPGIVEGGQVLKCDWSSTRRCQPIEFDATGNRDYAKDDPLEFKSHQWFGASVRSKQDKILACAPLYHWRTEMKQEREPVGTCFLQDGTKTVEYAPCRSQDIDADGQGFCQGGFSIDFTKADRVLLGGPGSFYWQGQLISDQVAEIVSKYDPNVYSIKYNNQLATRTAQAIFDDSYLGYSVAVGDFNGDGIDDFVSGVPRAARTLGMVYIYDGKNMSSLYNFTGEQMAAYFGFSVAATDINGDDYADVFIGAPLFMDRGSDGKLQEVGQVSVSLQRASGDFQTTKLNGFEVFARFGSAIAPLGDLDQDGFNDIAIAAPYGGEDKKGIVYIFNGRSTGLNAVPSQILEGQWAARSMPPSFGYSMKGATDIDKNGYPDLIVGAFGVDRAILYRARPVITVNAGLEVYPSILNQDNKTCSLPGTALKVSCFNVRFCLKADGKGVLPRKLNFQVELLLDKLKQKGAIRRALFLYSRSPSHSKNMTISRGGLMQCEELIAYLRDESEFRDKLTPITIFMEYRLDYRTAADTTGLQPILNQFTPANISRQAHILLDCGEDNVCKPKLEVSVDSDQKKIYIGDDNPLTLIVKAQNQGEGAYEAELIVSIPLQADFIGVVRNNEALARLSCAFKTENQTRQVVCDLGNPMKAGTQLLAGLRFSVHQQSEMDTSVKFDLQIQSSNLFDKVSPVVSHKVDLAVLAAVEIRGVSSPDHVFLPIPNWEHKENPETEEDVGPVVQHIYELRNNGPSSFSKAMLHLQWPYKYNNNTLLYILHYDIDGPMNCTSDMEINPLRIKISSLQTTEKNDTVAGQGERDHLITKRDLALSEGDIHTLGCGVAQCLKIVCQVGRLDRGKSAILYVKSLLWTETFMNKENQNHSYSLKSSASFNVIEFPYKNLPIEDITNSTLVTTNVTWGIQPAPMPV
# T2 chain 2: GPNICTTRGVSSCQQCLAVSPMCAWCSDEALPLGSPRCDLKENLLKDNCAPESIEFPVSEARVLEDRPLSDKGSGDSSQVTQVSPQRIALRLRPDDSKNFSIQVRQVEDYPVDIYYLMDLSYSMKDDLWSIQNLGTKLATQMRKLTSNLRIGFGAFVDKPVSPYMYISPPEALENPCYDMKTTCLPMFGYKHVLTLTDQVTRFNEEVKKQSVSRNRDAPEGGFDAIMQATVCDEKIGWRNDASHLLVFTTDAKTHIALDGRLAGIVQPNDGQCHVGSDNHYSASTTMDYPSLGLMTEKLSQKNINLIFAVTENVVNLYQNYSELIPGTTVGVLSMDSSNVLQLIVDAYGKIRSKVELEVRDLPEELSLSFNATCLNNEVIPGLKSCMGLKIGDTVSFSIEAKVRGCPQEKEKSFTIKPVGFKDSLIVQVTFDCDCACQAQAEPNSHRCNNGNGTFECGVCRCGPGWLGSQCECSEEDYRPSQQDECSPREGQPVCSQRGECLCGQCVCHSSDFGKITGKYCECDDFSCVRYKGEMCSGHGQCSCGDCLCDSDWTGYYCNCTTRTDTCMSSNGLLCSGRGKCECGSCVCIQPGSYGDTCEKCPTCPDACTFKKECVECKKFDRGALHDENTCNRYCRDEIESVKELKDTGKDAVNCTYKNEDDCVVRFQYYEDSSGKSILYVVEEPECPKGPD
# T3: recombinant human high mobility group box 1 (human, UniProt P09429 1-215)
# T3 chain: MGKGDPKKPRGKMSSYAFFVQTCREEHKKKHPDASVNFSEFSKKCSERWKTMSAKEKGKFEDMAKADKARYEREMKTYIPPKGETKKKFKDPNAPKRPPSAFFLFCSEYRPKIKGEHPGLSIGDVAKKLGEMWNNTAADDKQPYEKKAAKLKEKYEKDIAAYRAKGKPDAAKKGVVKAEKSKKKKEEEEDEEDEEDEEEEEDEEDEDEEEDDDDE
# Key:
# Test in all cases: SPR
# [1] = molecular target: T1, recombinant mouse cold-inducible …
# [2] = molecular target: recombinant human histone H3 (human, UniProt P68431 1-136)
# [3] = molecular target: T2, recombinant human alphavbeta3 integrin
# [4] = molecular target: T3, recombinant human high mobility group …
binder,measurement,setting,value
GNFNSSNIMKTCLQNRGD [opsonic peptide 18],Kd,[1],1.5 nM
same,Kd,[2],2.1 nM
same,Kd,[3],1.1 nM
same,Kd,[4],3.9 nM
